# IntAct's records for PubMed 17030804
# B1: Rab11 family-interacting protein 3 (Homo sapiens), O75154-1 (parent)
# chain: MASAPPASPPGSEPPGPDPEPGGPDGPGAAQLAPGPAELRLGAPVGGPDPQSPGLDEPAPGAAADGGARWSAGPAPGLEGGPRDPGPSAPPPRSGPRGQLASPDAPGPGPRSEAPLPELDPLFSWTEEPEECGPASCPESAPFRLQGSSSSHRARGEVDVFSPFPAPTAGELALEQGPGSPPQPSDLSQTHPLPSEPVGSQEDGPRLRAVFDALDGDGDGFVRIEDFIQFATVYGAEQVKDLTKYLDPSGLGVISFEDFYQGITAIRNGDPDGQCYGGVASAQDEEPLACPDEFDDFVTYEANEVTDSAYMGSESTYSECETFTDEDTSTLVHPELQPEGDADSAGGSAVPSECLDAMEEPDHGALLLLPGRPHPHGQSVITVIGGEEHFEDYGEGSEAELSPETLCNGQLGCSDPAFLTPSPTKRLSSKKVARYLHQSGALTMEALEDPSPELMEGPEEDIADKVVFLERRVLELEKDTAATGEQHSRLRQENLQLVHRANALEEQLKEQELRACEMVLEETRRQKELLCKMEREKSIEIENLQTRLQQLDEENSELRSCTPCLKANIERLEEEKQKLLDEIESLTLRLSEEQENKRRMGDRLSHERHQFQRDKEATQELIEDLRKQLEHLQLLKLEAEQRRGRSSSMGLQEYHSRARESELEQEVRRLKQDNRNLKEQNEELNGQIITLSIQGAKSLFSTAFSESLAAEISSVSRDELMEAIQKQEEINFRLQDYIDRIIVAIMETNPSILEVK
# Variants of: B1
# Settings: with rb11a_human RAB11A
row,Variant,effect of a mutation on the interaction
1,M746S,disrupting interaction strength
2,D739A,disrupting interaction strength

# The remaining lines, values ahead:
row,effect of a mutation on the interaction,Variant
1,decreasing interaction strength,E747A
2,disrupting interaction strength,Y737S
